In patent US5763174:
Like-named read-outs stand apart in the source and are kept apart here.

Legend:
[1] = target: recombinant F-WT DRADA protein (full-length 140 kD human DRADA protein carrying an epitope-tag peptide FLAG at the NH2-terminal) (human)
[2] = target: T1, DRADA (dsRNA adenosine deaminase, purified 93/88/83 kD forms) (Bos taurus) (UniProt F1MUM9); details: assay not described; species/form of DRADA not stated in the passage
T1 sequence: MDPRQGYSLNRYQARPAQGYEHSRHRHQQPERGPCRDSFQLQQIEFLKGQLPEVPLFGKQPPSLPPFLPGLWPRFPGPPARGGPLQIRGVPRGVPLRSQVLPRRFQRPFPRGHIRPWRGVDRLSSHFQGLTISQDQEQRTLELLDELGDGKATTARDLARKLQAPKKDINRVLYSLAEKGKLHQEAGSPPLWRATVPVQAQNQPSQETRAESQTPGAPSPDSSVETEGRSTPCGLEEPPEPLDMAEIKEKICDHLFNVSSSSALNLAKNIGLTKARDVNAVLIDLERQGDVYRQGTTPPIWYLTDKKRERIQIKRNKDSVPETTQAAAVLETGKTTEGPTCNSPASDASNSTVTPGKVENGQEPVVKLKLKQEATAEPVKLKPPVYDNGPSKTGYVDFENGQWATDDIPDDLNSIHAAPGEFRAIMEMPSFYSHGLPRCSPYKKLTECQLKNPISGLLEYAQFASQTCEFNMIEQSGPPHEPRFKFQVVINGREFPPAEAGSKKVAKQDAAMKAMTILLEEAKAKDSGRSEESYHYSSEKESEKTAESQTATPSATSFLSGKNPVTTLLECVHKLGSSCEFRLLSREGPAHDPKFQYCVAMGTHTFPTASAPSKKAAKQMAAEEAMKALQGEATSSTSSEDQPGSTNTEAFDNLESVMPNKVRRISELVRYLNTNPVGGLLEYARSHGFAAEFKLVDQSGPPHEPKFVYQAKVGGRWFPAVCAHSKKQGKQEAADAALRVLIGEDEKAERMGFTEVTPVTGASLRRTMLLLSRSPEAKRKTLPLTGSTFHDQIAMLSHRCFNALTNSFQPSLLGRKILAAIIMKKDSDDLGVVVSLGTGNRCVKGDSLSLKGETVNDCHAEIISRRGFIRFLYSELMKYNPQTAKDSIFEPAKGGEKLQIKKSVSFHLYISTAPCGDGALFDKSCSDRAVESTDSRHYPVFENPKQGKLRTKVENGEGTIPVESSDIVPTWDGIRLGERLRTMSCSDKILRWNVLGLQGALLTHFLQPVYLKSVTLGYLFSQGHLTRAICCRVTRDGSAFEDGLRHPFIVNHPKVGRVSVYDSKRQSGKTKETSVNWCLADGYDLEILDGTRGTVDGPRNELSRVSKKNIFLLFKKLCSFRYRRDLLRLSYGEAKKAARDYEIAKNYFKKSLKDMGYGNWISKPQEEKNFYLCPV

[3] = target: T2, F-WT DRADA (Homo sapiens) (UniProt P55265); details: editing at intronic +60 site by DRADA alone; no Q/R editing alone, up to 34% Q/R with 293 extract cofactor
T2 sequence: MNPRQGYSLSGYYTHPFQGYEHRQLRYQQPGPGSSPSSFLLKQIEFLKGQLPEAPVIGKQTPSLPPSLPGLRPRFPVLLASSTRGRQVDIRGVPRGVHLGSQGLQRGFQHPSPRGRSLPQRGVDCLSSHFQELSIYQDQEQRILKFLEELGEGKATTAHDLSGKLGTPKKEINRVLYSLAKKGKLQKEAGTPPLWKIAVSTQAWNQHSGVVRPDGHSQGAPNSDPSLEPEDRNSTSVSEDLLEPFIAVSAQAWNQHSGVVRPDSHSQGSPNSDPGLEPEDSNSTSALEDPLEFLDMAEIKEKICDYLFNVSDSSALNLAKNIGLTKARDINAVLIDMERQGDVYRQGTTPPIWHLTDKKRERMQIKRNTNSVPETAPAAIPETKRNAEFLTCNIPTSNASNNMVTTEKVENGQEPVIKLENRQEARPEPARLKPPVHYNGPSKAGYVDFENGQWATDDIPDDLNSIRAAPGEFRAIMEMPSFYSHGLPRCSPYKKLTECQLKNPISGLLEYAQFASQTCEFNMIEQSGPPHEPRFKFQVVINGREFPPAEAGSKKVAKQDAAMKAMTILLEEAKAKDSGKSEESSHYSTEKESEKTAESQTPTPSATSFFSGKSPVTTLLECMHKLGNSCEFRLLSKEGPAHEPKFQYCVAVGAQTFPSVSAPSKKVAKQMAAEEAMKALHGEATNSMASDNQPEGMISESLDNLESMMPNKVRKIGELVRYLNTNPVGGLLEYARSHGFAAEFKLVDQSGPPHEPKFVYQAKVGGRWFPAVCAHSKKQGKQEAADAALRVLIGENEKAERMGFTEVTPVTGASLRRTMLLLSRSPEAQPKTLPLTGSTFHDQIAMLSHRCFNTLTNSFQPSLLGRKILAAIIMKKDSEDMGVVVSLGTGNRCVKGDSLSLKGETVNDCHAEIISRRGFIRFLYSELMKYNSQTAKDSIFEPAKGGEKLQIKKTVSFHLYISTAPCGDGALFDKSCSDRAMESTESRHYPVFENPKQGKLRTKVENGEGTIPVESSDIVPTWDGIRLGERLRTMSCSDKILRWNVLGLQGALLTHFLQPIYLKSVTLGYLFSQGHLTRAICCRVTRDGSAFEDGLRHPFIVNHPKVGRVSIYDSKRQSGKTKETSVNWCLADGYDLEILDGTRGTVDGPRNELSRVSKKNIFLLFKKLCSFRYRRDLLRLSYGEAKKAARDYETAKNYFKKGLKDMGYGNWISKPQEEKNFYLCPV

[4] = target: recombinant F-WT DRADA protein (full-length 140 kD human DRADA protein carrying an epitope-tag peptide FLAG at the NH2-terminal) (human); remark: listed apart in the source

293 nuclear extract (unidentified cofactor protein(s) of 293 human embryonic kidney cells) (pool or library)
Q/R site editing of synthetic GluR-B RNA (in vitro editing, primer extension assay) [1]: 14%

575 bp dsRNA
Kd [2]: 0.23 nM

GluR-B Bmini RNA (745 nt)
activity [3]: < 79%

HeLa nuclear extract (unidentified cofactor protein(s)) (pool or library)
Q/R site editing of synthetic GluR-B RNA (in vitro editing, primer extension assay) [4]: 63%
